IntAct's records for PubMed 25910212

B1: U4/U6 small nuclear ribonucleoprotein Prp3 (Homo sapiens), O43395 (parent)
chain: MALSKRELDELKPWIEKTVKRVLGFSEPTVVTAALNCVGKGMDKKKAADHLKPFLDDSTLRFVDKLFEAVEEGRSSRHSKSSSDRSRKRELKEVFGDDSEISKESSGVKKRRIPRFEEVEEEPEVIPGPPSESPGMLTKLQIKQMMEAATRQIEERKKQLSFISPPTPQPKTPSSSQPERLPIGNTIQPSQAATFMNDAIEKARKAAELQARIQAQLALKPGLIGNANMVGLANLHAMGIAPPKVELKDQTKPTPLILDEQGRTVDATGKEIELTHRMPTLKANIRAVKREQFKQQLKEKPSEDMESNTFFDPRVSIAPSQRQRRTFKFHDKGKFEKIAQRLRTKAQLEKLQAEISQAARKTGIHTSTRLALIAPKKELKEGDIPEIEWWDSYIIPNGFDLTEENPKREDYFGITNLVEHPAQLNPPVDNDTPVTLGVYLTKKEQKKLRRQTRREAQKELQEKVRLGLMPPPEPKVRISNLMRVLGTEAVQDPTKVEAHVRAQMAKRQKAHEEANAARKLTAEQRKVKKIKKLKEDISQGVHISVYRVRNLSNPAKKFKIEANAGQLYLTGVVVLHKDVNVVVVEGGPKAQKKFKRLMLHRIKWDEQTSNTKGDDDEESDEEAVKKTNKCVLVWEGTAKDRSFGEMKFKQCPTENMAREHFKKHGAEHYWDLALSESVLESTD
partner: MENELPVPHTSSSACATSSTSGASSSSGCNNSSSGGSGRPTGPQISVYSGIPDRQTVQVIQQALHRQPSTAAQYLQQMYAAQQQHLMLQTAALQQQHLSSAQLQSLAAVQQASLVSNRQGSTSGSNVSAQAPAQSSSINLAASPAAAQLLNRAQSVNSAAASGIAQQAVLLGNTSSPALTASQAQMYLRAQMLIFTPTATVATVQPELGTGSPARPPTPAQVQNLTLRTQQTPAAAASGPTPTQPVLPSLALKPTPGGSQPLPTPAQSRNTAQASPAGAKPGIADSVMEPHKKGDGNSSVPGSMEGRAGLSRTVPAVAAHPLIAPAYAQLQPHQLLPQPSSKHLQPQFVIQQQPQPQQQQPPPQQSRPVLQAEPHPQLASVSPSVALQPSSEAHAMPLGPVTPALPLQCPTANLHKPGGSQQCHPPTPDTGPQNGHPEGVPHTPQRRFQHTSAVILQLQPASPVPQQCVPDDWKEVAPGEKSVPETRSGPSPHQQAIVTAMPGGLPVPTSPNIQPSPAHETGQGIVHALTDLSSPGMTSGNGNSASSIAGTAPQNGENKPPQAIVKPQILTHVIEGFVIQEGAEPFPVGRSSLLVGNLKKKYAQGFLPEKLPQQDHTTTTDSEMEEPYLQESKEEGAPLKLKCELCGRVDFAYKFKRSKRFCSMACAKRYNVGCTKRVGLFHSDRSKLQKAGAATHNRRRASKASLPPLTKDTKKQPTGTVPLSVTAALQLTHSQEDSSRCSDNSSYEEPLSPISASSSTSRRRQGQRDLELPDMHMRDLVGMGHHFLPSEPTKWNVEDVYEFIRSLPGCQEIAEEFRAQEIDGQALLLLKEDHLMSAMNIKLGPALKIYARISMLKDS
B2: Inhibin alpha chain (Homo sapiens), P05111 (parent)
chain: MVLHLLLFLLLTPQGGHSCQGLELARELVLAKVRALFLDALGPPAVTREGGDPGVRRLPRRHALGGFTHRGSEPEEEEDVSQAILFPATDASCEDKSAARGLAQEAEEGLFRYMFRPSQHTRSRQVTSAQLWFHTGLDRQGTAASNSSEPLLGLLALSPGGPVAVPMSLGHAPPHWAVLHLATSALSLLTHPVLVLLLRCPLCTCSARPEATPFLVAHTRTRPPSGGERARRSTPLMSWPWSPSALRLLQRPPEEPAAHANCHRVALNISFQELGWERWIVYPPSFIFHYCHGGCGLHIPPNLSLPVPGAPPTPAQPYSLLPGAQPCCAALPGTMRPLHVRTTSDGGYSFKYETVPNLLTQHCACI
partner: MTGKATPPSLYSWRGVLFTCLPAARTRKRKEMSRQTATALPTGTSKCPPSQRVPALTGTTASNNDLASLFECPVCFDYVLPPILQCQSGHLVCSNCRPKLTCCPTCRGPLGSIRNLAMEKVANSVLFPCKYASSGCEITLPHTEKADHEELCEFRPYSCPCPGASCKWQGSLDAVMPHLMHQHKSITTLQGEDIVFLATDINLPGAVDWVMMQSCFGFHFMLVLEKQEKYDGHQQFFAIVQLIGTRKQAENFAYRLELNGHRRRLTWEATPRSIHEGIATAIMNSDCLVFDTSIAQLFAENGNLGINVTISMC
B3: Tyrosine-protein kinase BTK (Homo sapiens), Q06187 (parent)
chain: MAAVILESIFLKRSQQKKKTSPLNFKKRLFLLTVHKLSYYEYDFERGRRGSKKGSIDVEKITCVETVVPEKNPPPERQIPRRGEESSEMEQISIIERFPYPFQVVYDEGPLYVFSPTEELRKRWIHQLKNVIRYNSDLVQKYHPCFWIDGQYLCCSQTAKNAMGCQILENRNGSLKPGSSHRKTKKPLPPTPEEDQILKKPLPPEPAAAPVSTSELKKVVALYDYMPMNANDLQLRKGDEYFILEESNLPWWRARDKNGQEGYIPSNYVTEAEDSIEMYEWYSKHMTRSQAEQLLKQEGKEGGFIVRDSSKAGKYTVSVFAKSTGDPQGVIRHYVVCSTPQSQYYLAEKHLFSTIPELINYHQHNSAGLISRLKYPVSQQNKNAPSTAGLGYGSWEIDPKDLTFLKELGTGQFGVVKYGKWRGQYDVAIKMIKEGSMSEDEFIEEAKVMMNLSHEKLVQLYGVCTKQRPIFIITEYMANGCLLNYLREMRHRFQTQQLLEMCKDVCEAMEYLESKQFLHRDLAARNCLVNDQGVVKVSDFGLSRYVLDDEYTSSVGSKFPVRWSPPEVLMYSKFSSKSDIWAFGVLMWEIYSLGKMPYERFTNSETAEHIAQGLRLYRPHLASEKVYTIMYSCWHEKADERPTFKILLSNILDVMDEES
B4: U4/U6 small nuclear ribonucleoprotein Prp31 (Homo sapiens), Q8WWY3 (parent)
chain: MSLADELLADLEEAAEEEEGGSYGEEEEEPAIEDVQEETQLDLSGDSVKTIAKLWDSKMFAEIMMKIEEYISKQAKASEVMGPVEAAPEYRVIVDANNLTVEIENELNIIHKFIRDKYSKRFPELESLVPNALDYIRTVKELGNSLDKCKNNENLQQILTNATIMVVSVTASTTQGQQLSEEELERLEEACDMALELNASKHRIYEYVESRMSFIAPNLSIIIGASTAAKIMGVAGGLTNLSKMPACNIMLLGAQRKTLSGFSSTSVLPHTGYIYHSDIVQSLPPDLRRKAARLVAAKCTLAARVDSFHESTEGKVGYELKDEIERKFDKWQEPPPVKQVKPLPAPLDGQRKKRGGRRYRKMKERLGLTEIRKQANRMSFGEIEEDAYQEDLGFSLGHLGKSGSGRVRQTQVNEATKARISKTLQRTLQKQSVVYGGKSTIRDRSSGTASSVAFTPLQGLEIVNPQAAEKKVAEANQKYFSSMAEFLKVKGEKSGLMST
partner: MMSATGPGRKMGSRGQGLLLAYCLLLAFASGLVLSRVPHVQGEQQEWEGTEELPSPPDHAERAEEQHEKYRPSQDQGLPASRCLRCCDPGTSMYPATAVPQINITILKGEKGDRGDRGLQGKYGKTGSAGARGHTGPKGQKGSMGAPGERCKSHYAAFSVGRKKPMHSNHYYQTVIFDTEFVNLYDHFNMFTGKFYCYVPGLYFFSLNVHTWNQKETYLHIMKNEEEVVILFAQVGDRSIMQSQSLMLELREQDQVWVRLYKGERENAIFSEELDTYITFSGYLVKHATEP
B5: Beta-crystallin A4 (Homo sapiens), P53673 (parent)
chain: MTLQCTKSAGPWKMVVWDEDGFQGRRHEFTAECPSVLELGFETVRSLKVLSGAWVGFEHAGFQGQQYILERGEYPSWDAWGGNTAYPAERLTSFRPAACANHRDSRLTIFEQENFLGKKGELSDDYPSLQAMGWEGNEVGSFHVHSGAWVCSQFPGYRGFQYVLECDHHSGDYKHFREWGSHAPTFQVQSIRRIQQ
partner: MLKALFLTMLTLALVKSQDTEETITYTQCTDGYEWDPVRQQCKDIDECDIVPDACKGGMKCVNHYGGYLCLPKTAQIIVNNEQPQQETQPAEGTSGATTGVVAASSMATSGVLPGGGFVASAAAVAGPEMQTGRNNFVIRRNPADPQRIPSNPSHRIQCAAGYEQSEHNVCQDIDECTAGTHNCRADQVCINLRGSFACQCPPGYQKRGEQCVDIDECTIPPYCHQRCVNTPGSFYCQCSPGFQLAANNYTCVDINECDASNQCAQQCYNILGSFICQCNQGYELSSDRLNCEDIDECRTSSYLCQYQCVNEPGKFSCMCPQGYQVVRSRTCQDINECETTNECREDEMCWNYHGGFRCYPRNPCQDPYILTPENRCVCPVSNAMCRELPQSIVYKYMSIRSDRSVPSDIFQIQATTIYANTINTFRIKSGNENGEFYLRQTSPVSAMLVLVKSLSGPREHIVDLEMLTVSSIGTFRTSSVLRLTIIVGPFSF

Variants of: B1
Conditions: with PHC2, Q8IXK0-5

| effect of a mutation on the interaction | Variant |
| --- | --- |
| disrupting interaction strength | P493S |
| disrupting interaction strength | A489D |
| disrupting interaction strength | T494M |

Variants of: B2
Conditions: with SIAH1, Q8IUQ4-2

| effect of a mutation on the interaction | Variant |
| --- | --- |
| with no effect | A182D |
| with no effect | A257T |
| with no effect | P43A |

Variants of: B3
Conditions: with meox2_human MEOX2, P50222
meox2_human MEOX2, P50222, sequence (P50222 whole entry): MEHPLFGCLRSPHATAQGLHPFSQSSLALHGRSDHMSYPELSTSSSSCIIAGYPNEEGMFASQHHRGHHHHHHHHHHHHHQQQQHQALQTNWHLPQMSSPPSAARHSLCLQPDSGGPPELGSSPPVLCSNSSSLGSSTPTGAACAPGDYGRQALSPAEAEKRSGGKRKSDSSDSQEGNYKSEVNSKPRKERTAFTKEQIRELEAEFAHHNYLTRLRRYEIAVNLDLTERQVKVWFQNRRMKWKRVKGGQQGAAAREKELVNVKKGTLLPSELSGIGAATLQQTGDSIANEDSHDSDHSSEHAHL

| effect of a mutation on the interaction | Variant |
| --- | --- |
| disrupting interaction strength | P565L |

Variants of: B4
Conditions: with C1QTNF1, Q9BXJ1-2

| effect of a mutation on the interaction | Variant |
| --- | --- |
| with no effect | L107V |

Variants of: B5
Conditions: with fbln3_human EFEMP1, Q12805

| effect of a mutation on the interaction | Variant |
| --- | --- |
| disrupting interaction strength | F94S |
| disrupting interaction strength | L69P |
